For the assay, the target named is T1, GST–ELL (human, UniProt P55199 1-621).
T1 construct: ELL (ELL1), human elongation factor; also called purified recombinant GST–ELL; source: bacterial expression system, purified
As to the kind of experiment: pull-down; in vitro direct interaction assay with purified GST–ELL or GST and purified HDAC3. The conditions noted are these: both partners purified.

We go through one molecule from article PMC7104407, “DBC1, p300, HDAC3, and Siah1 coordinately regulate ELL stability and function for expression of its target genes” (Proceedings of the National Academy of Sciences of the …, 2020).

B1: HDAC3, purified (enzyme, human, UniProt O15379 1-428, looked up)
chain: MAKTVAYFYDPDVGNFHYGAGHPMKPHRLALTHSLVLHYGLYKKMIVFKPYQASQHDMCRFHSEDYIDFLQRVSPTNMQGFTKSLNAFNVGDDCPVFPGLFEFCSRYTGASLQGATQLNNKICDIAINWAGGLHHAKKFEASGFCYVNDIVIGILELLKYHPRVLYIDIDIHHGDGVQEAFYLTDRVMTVSFHKYGNYFFPGTGDMYEVGAESGRYYCLNVPLRDGIDDQSYKHLFQPVINQVVDFYQPTCIVLQCGADSLGCDRLGCFNLSIRGHGECVEYVKSFNIPLLVLGGGGYTVRNVARCWTYETSLLVEEAISEELPYSEYFEYFAPDFTLHPDVSTRIENQNSRQYLDQIRQTIFENLKMLNHAPSVQIHDVPADLLTYDRTDEADAEERGPEENYSRPEAPNEFYDGDHDNDKESDVEI
notes: histone deacetylase 3, human; also called purified HDAC3; source: overexpressed in mammalian 293T cells, purified (high salt-based purification method)
Turning to B1, the binding result is given as “binds”.
